Reference: paper PMC4349660

Legend:
[1] = target: Glycophorin A, native, on intact unmodified human erythrocytes (human (endogenous in erythrocytes)) (UniProt P02724); assay: backscattering interferometry (BSI); free solution, label-free; intact erythrocytes at 0.1% haematocrit in 0.01% BSA-PBS, PfEBA175 dilution series up to 1 μM, 1 h at room temperature; reference: neuraminidase-treated erythrocytes, subtracted; square hyperbolic fit
[2] = target: Basigin, native, on intact unmodified human erythrocytes (human (endogenous in erythrocytes)); assay: backscattering interferometry (BSI); free solution, label-free; intact erythrocytes at 0.1% haematocrit in 0.01% BSA-PBS, PfRH5 dilution series up to 4.5 μM, 1 h at room temperature; reference: erythrocytes pre-incubated with 10 μg/mL anti-BSG antibody MEM-M6/6, subtracted; square hyperbolic fit

Substance | Kd [1] [nM] | Kd [2] [nM]
PfEBA175, entire ectodomain, monomeric Cd4-tagged recombinant protein (ligand) | 50 | 
PfRH5, entire ectodomain, Cd4-tagged monomer (ligand) |  | 1100
